Test results published in the supplement of paper PMC9170038.

Experiments:
[1] = system: K4 kissing-loop RNA reporter; test: apparent KD of K4 kissing-loop reporter; higher = weaker reporter binding; conditions: Eterna round: R107;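 also: bound reporter read as fluorescence of individual clusters on recovered sequencing chips by microscopy, with normalized cluster intensities fitted with a binding model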
Procedure: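 RNA-MaP round R107: designed RNA switches with theophylline, tryptophan, arginine or FMN aptamers are transcribed on-chip within common flanks. They are titrated with a labelled K4 kissing-loop RNA reporter in RNA-MaP buffer (100 mM Tris pH 7.5, 80 mM KCl, 4 mM MgCl2), without ligand or with the indicated ligand. Median apparent KD per design.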

MS2 coat protein = test: apparent KD of MS2 coat protein; designed switch direction (-1 OFF switch, 1 ON switch): -1; higher = weaker reporter binding
Method in brief: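 SNAP-549-labelled MS2 coat protein was titrated, doubling from 0.7 or 1.5 nM to 3 µM, over designed RNA switches transcribed on Illumina chips by stalled E. coli RNA polymerase. Runs were done without input, with 200 uM small-molecule ligand, or with an oligonucleotide input. Apparent KD is the per-design median over clusters of curve-fitted normalised fluorescence.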

[2] = input ligand: theophylline 20 uM
[3] = input ligand: tryptophan 2.4 mM
[4] = Eterna round: R95, input ligand: FMN 200 uM
[5] = Eterna round: R95, input ligand: microRNA oligo, concentration not stated
[6] = Eterna round: R95, input ligand: none
[7] = input ligand: microRNA oligo, concentration not stated

AAAUAUUCGAGUGAUGUUCGAAUAAUAUCAGAGGAUAUGCAUAAAAGCAGAAGGCUGUAUUACUUUUUGUUACGAAAUUUUAUAA [JR_SSFMNA_Sub020]
apparent KD of K4 kissing-loop reporter ([1]; input ligand: FMN 200 uM): 111 nM | apparent KD of K4 kissing-loop reporter ([1]; input ligand: arginine 13.2 mM): 115 nM | apparent KD of K4 kissing-loop reporter ([1]; input ligand: none): 102 nM | apparent KD of K4 kissing-loop reporter [1, 2]: 118 nM | apparent KD of K4 kissing-loop reporter [1, 3]: 115 nM

AAAUGUUUGUAUUUGAACAAUUUCCUUAGAGAGGAUAUUGGUAAUACAAGAAGGCUCUGAUGGGAGUGAUGUUCCCAUAACGCGG [Exclusion FMN A GF14]
apparent KD of K4 kissing-loop reporter ([1]; input ligand: FMN 200 uM): 110 nM | apparent KD of K4 kissing-loop reporter ([1]; input ligand: arginine 13.2 mM): 114 nM | apparent KD of K4 kissing-loop reporter ([1]; input ligand: none): 119 nM | apparent KD of K4 kissing-loop reporter [1, 2]: 126 nM | apparent KD of K4 kissing-loop reporter [1, 3]: 91 nM

AAAUUUAAUAUAUUUAAUUAAUUAUGUGAUACCAGACAUUAAUAAGUCCCUUGGCAGCACAAUGCAGUGAUGUUGCAUAUAAUAA [JR_SSTheophyA_Sub011]
apparent KD of K4 kissing-loop reporter ([1]; input ligand: FMN 200 uM): 69.4 nM | apparent KD of K4 kissing-loop reporter ([1]; input ligand: arginine 13.2 mM): 115 nM | apparent KD of K4 kissing-loop reporter ([1]; input ligand: none): 73.5 nM | apparent KD of K4 kissing-loop reporter [1, 2]: 84.8 nM | apparent KD of K4 kissing-loop reporter [1, 3]: 65.4 nM

AAAUUUAUAUUAGAUACCAGCAUAUUGAAAGUUUAUUAUGACAAGAGUGAUGUUCUUGUAUGCCCUUGGCAGCUGGUAUGGGUUU [KL-XTheo-B25]
apparent KD of K4 kissing-loop reporter ([1]; input ligand: FMN 200 uM): 114 nM | apparent KD of K4 kissing-loop reporter ([1]; input ligand: arginine 13.2 mM): 107 nM | apparent KD of K4 kissing-loop reporter ([1]; input ligand: none): 104 nM | apparent KD of K4 kissing-loop reporter [1, 2]: 110 nM | apparent KD of K4 kissing-loop reporter [1, 3]: 110 nM

AACAAGGGAUGUCAGUGAUGUUGUACGUCGCGAGGACCGGUACGGCCGCCACUCGUAAUACACAGAUGAGGGUUCUUUCUCUGAU [theeternabot_sameState_KL_Trp_A_49]
apparent KD of K4 kissing-loop reporter ([1]; input ligand: FMN 200 uM): 305 nM | apparent KD of K4 kissing-loop reporter ([1]; input ligand: arginine 13.2 mM): 179 nM | apparent KD of K4 kissing-loop reporter ([1]; input ligand: none): 268 nM | apparent KD of K4 kissing-loop reporter [1, 2]: 265 nM | apparent KD of K4 kissing-loop reporter [1, 3]: 228 nM

UUUGCAAGCUUUUGAUCCCACAUGAGGAUCACCCAUGUUGCUGCCGUGAGGUAGCAUUUAACAAAUGCUCGUCUUAU [JL TOV1 3.53] (Eterna round: R97, puzzle: Sensor, turn-off variant 1)
apparent KD of MS2 coat protein (MS2 coat protein; input ligand: FMN 200 uM): 555 nM | apparent KD of MS2 coat protein (MS2 coat protein; input ligand: none): 762 nM

UUUGUACAUGAGGAUCACCCAUGUCAGGAUAUGUCAUCGCCGUUUCCCAGCCGGCGUCACAGAAGGGACAUGCA [EX1 C.5] (Eterna round: R97, puzzle: Exclusion 1)
apparent KD of MS2 coat protein (MS2 coat protein; input ligand: FMN 200 uM): 56.6 nM | apparent KD of MS2 coat protein (MS2 coat protein; input ligand: none): 26.2 nM

UUUUAACAUGAGGAUCACCCAUGUAAGGAUAUGCUAUUUUUUUUUUUUUUUUUUUUUUGCAGAAGGUACAUUUU [My solution] (puzzle: Exclusion 1)
apparent KD of MS2 coat protein (MS2 coat protein; [4]): 33.8 nM | apparent KD of MS2 coat protein (MS2 coat protein; [5]): 21.3 nM | apparent KD of MS2 coat protein (MS2 coat protein; [6]): 21.6 nM

UUUUAACAUGAGGAUCACCCAUGUGAGGAUAUCGAAAUUUAUAUUAAUAUUUAUAAAUCGAGAAGGCACAUUUU [JMF 52] (puzzle: Exclusion 1)
apparent KD of MS2 coat protein (MS2 coat protein; [5]): 139 nM

UUUUAACAUGAGGAUCACCCAUGUGAGGAUAUCGAAAUUUAUAUUAAUAUUUAUAUUUCGAGAAGGCACAUUUU [JMF 57] (puzzle: Exclusion 1)
apparent KD of MS2 coat protein (MS2 coat protein; [5]): 153 nM

UUUUAACAUGAGGAUCACCCAUGUGAGGAUAUCGAAAUUUUUAUUAAUAUUAAUAAAACGAGAAGGCACAUUUU [JMF 12] (puzzle: Exclusion 1)
apparent KD of MS2 coat protein (MS2 coat protein; [5]): 58.3 nM

UUUUAACAUGAGGAUCACCCAUGUGAGGAUAUCGUAUUUUAUAUUAAUAUUAAUAAAACGAGAAGGCACAUUUU [JMF 9] (puzzle: Exclusion 1)
apparent KD of MS2 coat protein (MS2 coat protein; [4]): 28.4 nM | apparent KD of MS2 coat protein (MS2 coat protein; [5]): 25.4 nM | apparent KD of MS2 coat protein (MS2 coat protein; [6]): 29.5 nM

UUUUAACAUGAGGAUCACCCAUGUGAGGAUAUGAUUUUUUUUUUUUUUUUUUUUUUUUUCAGAAGGCACAUUUU [My solution] (puzzle: Exclusion 1)
apparent KD of MS2 coat protein (MS2 coat protein; [4]): 18 nM | apparent KD of MS2 coat protein (MS2 coat protein; [5]): 64.3 nM | apparent KD of MS2 coat protein (MS2 coat protein; [6]): 42.4 nM

UUUUACUCAGGAUAUAUGAUGUGAAACAUGAGGAUCACCCAUGUAAUAUUAUGGAUGUAAAUAGAAGGGAGAUUUA [Mat - Exclusion 5 - JL mod - D16] (puzzle: Exclusion 5)
apparent KD of MS2 coat protein (MS2 coat protein; [4]): 46.4 nM | apparent KD of MS2 coat protein (MS2 coat protein; [5]): 45.5 nM | apparent KD of MS2 coat protein (MS2 coat protein; [6]): 59.5 nM

UUUUAGAGAGGAUAUAUAUAGUGAAACAUGAGGAUCACCCAUGUAAUUAUAUGGAUGUAAAUAGAAGGCUCAUUUA [JL-ex5-3.02] (puzzle: Exclusion 5)
apparent KD of MS2 coat protein (MS2 coat protein; [4]): 35.7 nM | apparent KD of MS2 coat protein (MS2 coat protein; [5]): 31.1 nM | apparent KD of MS2 coat protein (MS2 coat protein; [6]): 30.7 nM

UUUUAGAGAGGAUAUAUUUAGUGAAACAUGAGGAUCACCCAUGUAAUUAAAUGGAUGUAAAUAGAAGGCUCAUUUA [Mat - Exclusion 5 - JL mod - D6] (puzzle: Exclusion 5)
apparent KD of MS2 coat protein (MS2 coat protein; [4]): 22.9 nM | apparent KD of MS2 coat protein (MS2 coat protein; [5]): 23.7 nM | apparent KD of MS2 coat protein (MS2 coat protein; [6]): 26.4 nM

UUUUAGGUAGGAUAUACAUUUUUUUUAUUAUCCUCAUUAUUACAUGAGGAUCACCCAUGUAGAAGGACCAUUUU [My Design] (puzzle: Exclusion 2)
apparent KD of MS2 coat protein (MS2 coat protein; [5]): 181 nM

UUUUUAUAUGAAGGAUAUACUUAACAUGAGGAUCACCCAUGUGGUGUUGUGAGUGAGUGAGUUUAGUAGAAGGUCAACGAUUUU [JMF's solution 58] (Eterna round: R96, puzzle: Exclusion NG 2)
apparent KD of MS2 coat protein (MS2 coat protein; input ligand: FMN 200 uM): 810 nM | apparent KD of MS2 coat protein (MS2 coat protein; [7]): 322 nM | apparent KD of MS2 coat protein (MS2 coat protein; input ligand: none): 421 nM

UUUUUAUAUGAAGGAUAUACUUAACAUGAGGAUCACCCAUGUGGUGUUGUGAGUGAGUGAGUUUAGUAGAAGGUCAAGGAUUUU [JMF's solution 35] (Eterna round: R96, puzzle: Exclusion NG 2)
apparent KD of MS2 coat protein (MS2 coat protein; input ligand: FMN 200 uM): 598 nM | apparent KD of MS2 coat protein (MS2 coat protein; [7]): 456 nM | apparent KD of MS2 coat protein (MS2 coat protein; input ligand: none): 161 nM

UUUUUAUAUGAAGGAUAUACUUAACAUGAGGAUCACCCAUGUGGUGUUGUGAGUGAGUGAGUUUAGUAGAAGGUCAAUGAUUUG [JMF's solution 63] (Eterna round: R96, puzzle: Exclusion NG 2)
apparent KD of MS2 coat protein (MS2 coat protein; input ligand: FMN 200 uM): 894 nM | apparent KD of MS2 coat protein (MS2 coat protein; [7]): 237 nM | apparent KD of MS2 coat protein (MS2 coat protein; input ligand: none): 563 nM

UUUUUAUAUGAAGGAUAUACUUAACAUGAGGAUCACCCAUGUGGUGUUGUGAGUGAGUGAGUUUAGUAGAAGGUCAAUUAUUAU [JMF's solution 15] (Eterna round: R96, puzzle: Exclusion NG 2)
apparent KD of MS2 coat protein (MS2 coat protein; input ligand: FMN 200 uM): 719 nM | apparent KD of MS2 coat protein (MS2 coat protein; [7]): 390 nM | apparent KD of MS2 coat protein (MS2 coat protein; input ligand: none): 271 nM

UUUUUGUCAGGAUAUGAGUAGUAGAACAAUAGUACUACUACUCAGAAGGGACAUGAGGAUCACCCAUGUUCCUC [Fiskers Ex 4 Super stable 44 mod 18] (puzzle: Exclusion 4)
apparent KD of MS2 coat protein (MS2 coat protein; [5]): 14.4 nM
